Experimental data from patent US5674833.

What follows are substances tested against Alcalase® (Bacillus) (UniProt P00780) (assay: titration of Alcalase with inhibitor, residual activity on synthetic peptide substrates, non-linear regression; 0.1M Tris-HCl pH 8.6, 25 C).

| Kd | Substance |
| --- | --- |
| 5 nM | CI-2(M59P) |
| 0.1 nM | CI-2(V57E) |
| 0.004 nM | Wild-type barley subtilisin inhibitor CI-2 |
